According to paper PMC10208892 (The Journal of Biological Chemistry, 2023):
Where a chain is given by its changes, count along the chain named.

Key:
[1] = target: T1, VPS33B, untagged, expressed in yeast (human, UniProt Q9H267 1-617); assay: co-IP
T1 sequence: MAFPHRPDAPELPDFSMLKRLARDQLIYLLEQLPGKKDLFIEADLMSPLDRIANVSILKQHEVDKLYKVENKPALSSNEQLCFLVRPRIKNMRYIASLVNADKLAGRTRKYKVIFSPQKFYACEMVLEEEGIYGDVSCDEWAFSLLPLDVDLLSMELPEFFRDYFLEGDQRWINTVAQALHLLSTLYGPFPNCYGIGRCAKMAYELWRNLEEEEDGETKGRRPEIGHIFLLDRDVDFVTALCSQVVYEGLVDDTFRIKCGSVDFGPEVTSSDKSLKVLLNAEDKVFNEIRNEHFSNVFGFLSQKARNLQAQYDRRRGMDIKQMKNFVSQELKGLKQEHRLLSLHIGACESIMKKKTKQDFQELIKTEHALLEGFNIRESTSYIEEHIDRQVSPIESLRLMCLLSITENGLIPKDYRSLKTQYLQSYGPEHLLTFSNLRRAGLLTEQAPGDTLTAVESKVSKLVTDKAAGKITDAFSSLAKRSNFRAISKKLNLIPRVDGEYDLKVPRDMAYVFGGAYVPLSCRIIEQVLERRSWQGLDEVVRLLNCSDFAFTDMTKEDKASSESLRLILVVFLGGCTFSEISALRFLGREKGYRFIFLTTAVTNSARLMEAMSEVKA

[2] = target: T1, VPS33B, untagged, expressed in yeast; assay: native gel or EMSA
VPS33B H344D = target: T2, VPS33B H344D (human, UniProt Q9H267 1-617, H344D); assay: co-IP
T2 sequence: T1 sequence with H344D

[3] = target: T3, VPS33B with C-terminal biotinylation signal (human, UniProt Q9H267 1-617, biotin on lysine 41 of the biotinylation signal); assay: co-IP
T3 sequence: T1 sequence

VPS33B S243F = target: T4, VPS33B S243F (human, UniProt Q9H267 1-617, S243F); assay: co-IP
T4 sequence: T1 sequence with S243F

[4] = target: T5, HA-VPS33B, expressed in yeast (human, UniProt Q9H267 1-617); assay: co-IP
T5 sequence: T1 sequence

B1: VPS16B(143–316)-3xFLAG (domain or fragment)
chain: RPKGEYRDYSNDWSPSDTVRRLRKGKVCSLERFRSLQDKLQLLEEAVSMHDGNVITAVLIFLKRTLSKEILFRELEVRQVALRHLIHFLKEIGDQKLLLDLFRFLDRTEELALSHYREHLNIQDPDKRKEFLKTCVGLPFSAEDSAHIQDHYTLLERQIIIEANDRHLESAGQT
- binding result [1]: binds

B2: VPS16B(143–493)-3xFLAG (domain or fragment)
chain: RPKGEYRDYSNDWSPSDTVRRLRKGKVCSLERFRSLQDKLQLLEEAVSMHDGNVITAVLIFLKRTLSKEILFRELEVRQVALRHLIHFLKEIGDQKLLLDLFRFLDRTEELALSHYREHLNIQDPDKRKEFLKTCVGLPFSAEDSAHIQDHYTLLERQIIIEANDRHLESAGQTEIFRKHPRKASILNMPLVTTLFYSCFYHYTEAEGTFSSPVNLKKTFKIPDKQYVLTALAARAKLRAWNDVDALFTTKNWLGYTKKRAPIGFHRVVEILHKNNAPVQILQEYVNLVEDVDTKLNLATKFKCHDVVIDTYRDLKDRQQLLAYRSKVDKGSAEEEKIDALLSSSQIRWKN
- binding result [1]: binds

B3: VPS16B-3xFLAG, expressed in yeast (natural protein)
chain: MNRTKGDEEEYWNSSKFKAFTFDDEDDELSQLKESKRAVNSLRDFVDDDDDDDLERVSWSGEPVGSISWSIRETAGNSGSTHEGREQLKSRNSFSSYAQLPKPTSTYSLSSFFRGRTRPGSFQSLSDALSDTPAKSYAPELGRPKGEYRDYSNDWSPSDTVRRLRKGKVCSLERFRSLQDKLQLLEEAVSMHDGNVITAVLIFLKRTLSKEILFRELEVRQVALRHLIHFLKEIGDQKLLLDLFRFLDRTEELALSHYREHLNIQDPDKRKEFLKTCVGLPFSAEDSAHIQDHYTLLERQIIIEANDRHLESAGQTEIFRKHPRKASILNMPLVTTLFYSCFYHYTEAEGTFSSPVNLKKTFKIPDKQYVLTALAARAKLRAWNDVDALFTTKNWLGYTKKRAPIGFHRVVEILHKNNAPVQILQEYVNLVEDVDTKLNLATKFKCHDVVIDTYRDLKDRQQLLAYRSKVDKGSAEEEKIDALLSSSQIRWKN
- binding result [2]: binds
- binding result (VPS33B H344D): binds
- binding result [3]: binds
- binding result (VPS33B S243F): binds

B4: HA-VPS16B-3xFLAG, expressed in yeast (natural protein)
chain: B3 chain
- binding result [4]: binds
